Assay results reported in US20250215444.

What was measured:
[1] = biological target: T1, Raptor1B fused N- or C-terminally to the GSrhino TAP tag, TAP-purified from PSB-D cell cultures
T1 chain: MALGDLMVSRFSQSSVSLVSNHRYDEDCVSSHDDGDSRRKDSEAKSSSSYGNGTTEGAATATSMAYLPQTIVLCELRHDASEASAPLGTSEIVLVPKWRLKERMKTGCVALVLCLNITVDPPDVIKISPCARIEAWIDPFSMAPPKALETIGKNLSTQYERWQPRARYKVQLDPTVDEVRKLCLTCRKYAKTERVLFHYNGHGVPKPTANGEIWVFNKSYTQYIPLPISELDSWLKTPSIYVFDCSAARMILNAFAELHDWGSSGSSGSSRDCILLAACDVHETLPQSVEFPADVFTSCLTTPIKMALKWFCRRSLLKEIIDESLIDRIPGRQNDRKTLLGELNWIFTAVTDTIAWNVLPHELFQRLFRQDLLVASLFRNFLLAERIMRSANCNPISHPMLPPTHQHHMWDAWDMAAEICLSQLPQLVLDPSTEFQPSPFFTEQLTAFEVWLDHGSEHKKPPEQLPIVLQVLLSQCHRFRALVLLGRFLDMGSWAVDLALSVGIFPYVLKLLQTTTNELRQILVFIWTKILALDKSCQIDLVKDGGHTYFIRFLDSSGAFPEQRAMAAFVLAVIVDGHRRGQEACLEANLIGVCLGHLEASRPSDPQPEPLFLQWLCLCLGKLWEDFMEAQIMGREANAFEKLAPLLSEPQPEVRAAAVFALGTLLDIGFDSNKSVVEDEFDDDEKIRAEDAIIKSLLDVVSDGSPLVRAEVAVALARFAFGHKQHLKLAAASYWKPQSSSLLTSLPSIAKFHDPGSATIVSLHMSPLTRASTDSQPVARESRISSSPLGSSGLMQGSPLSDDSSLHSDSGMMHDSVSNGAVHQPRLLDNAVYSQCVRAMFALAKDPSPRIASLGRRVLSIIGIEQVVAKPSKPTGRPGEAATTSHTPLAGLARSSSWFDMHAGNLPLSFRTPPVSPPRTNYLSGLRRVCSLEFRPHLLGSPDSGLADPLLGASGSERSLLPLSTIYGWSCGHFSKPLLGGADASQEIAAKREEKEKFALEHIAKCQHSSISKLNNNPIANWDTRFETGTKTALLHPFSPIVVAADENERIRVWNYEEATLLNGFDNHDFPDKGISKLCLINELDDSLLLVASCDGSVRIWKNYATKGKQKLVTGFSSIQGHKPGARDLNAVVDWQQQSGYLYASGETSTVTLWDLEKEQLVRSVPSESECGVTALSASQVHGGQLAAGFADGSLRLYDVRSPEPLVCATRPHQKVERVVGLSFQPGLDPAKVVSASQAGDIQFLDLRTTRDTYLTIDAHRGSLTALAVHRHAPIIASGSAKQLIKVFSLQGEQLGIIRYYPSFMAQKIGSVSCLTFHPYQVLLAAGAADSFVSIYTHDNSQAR

[2] = biological target: T2, LST8-1 fused C-terminally to the GSrhino tag, TAP-purified from PSB-D cell cultures, Q9LV27
T2 chain: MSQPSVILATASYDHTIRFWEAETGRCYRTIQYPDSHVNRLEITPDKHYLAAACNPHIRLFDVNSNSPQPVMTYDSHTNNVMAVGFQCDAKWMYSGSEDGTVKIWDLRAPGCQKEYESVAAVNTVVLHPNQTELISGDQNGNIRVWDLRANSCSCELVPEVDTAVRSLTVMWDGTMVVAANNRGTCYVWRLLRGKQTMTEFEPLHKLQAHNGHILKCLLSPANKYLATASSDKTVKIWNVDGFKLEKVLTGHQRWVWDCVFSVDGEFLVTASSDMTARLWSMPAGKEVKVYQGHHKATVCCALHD

B1: Recombinant RSK1 (ARSK1) kinase, His-MBP fusion produced in E. coli BL21 (protein)
chain: MAVFKKKKTSLTSLFLGCYKAKNVSKYEGGEKAVMKIRTCPAFKRLSLSDISDPSSPMSVMDDLSHSFTSQKLRLFTLSELRVITHNFSRSNMLGEGGFGPVYKGFIDDKVKPGIEAQPVAVKALDLHGHQGHREWLAEILFLGQLSNKHLVKLIGFCCEEEQRVLVYEYMPRGSLENQLFRRNSLAMAWGIRMKIALGAAKGLAFLHEAEKPVIYRDFKTSNILLDSDYNAKLSDFGLAKDGPEGEHTHVTTRVMGTQGYAAPEYIMTGHLTTMNDVYSFGVVLLELITGKRSMDNTRTRREQSLVEWARPMLRDQRKLERIIDPRLANQHKTEAAQVAASLAYKCLSQHPKYRPTMCEVVKVLESIQEVDIRKHDGNNNKEGKKFVDINKFRHHRKGKRRVNIAYSDSLVYKESKAKQNDGI
For B1, the “in vitro kinase assay with ATP-P32, SDS-PAGE and autoradiography” value [1] was “In the presence of ARSK1, the RAPTOR1B phosphosignal (lanes 2 and 3, rectangle) is higher compared to the control (lane 4; no ARSK1)” and the “in vitro kinase assay” value [2] was “ARSK1 could not phosphorylate these two proteins”.
